Data taken from IntAct's records for PubMed 21840486.

B1: Protein PML (Homo sapiens), P29590-1 (parent)
chain: MEPAPARSPRPQQDPARPQEPTMPPPETPSEGRQPSPSPSPTERAPASEEEFQFLRCQQCQAEAKCPKLLPCLHTLCSGCLEASGMQCPICQAPWPLGADTPALDNVFFESLQRRLSVYRQIVDAQAVCTRCKESADFWCFECEQLLCAKCFEAHQWFLKHEARPLAELRNQSVREFLDGTRKTNNIFCSNPNHRTPTLTSIYCRGCSKPLCCSCALLDSSHSELKCDISAEIQQRQEELDAMTQALQEQDSAFGAVHAQMHAAVGQLGRARAETEELIRERVRQVVAHVRAQERELLEAVDARYQRDYEEMASRLGRLDAVLQRIRTGSALVQRMKCYASDQEVLDMHGFLRQALCRLRQEEPQSLQAAVRTDGFDEFKVRLQDLSSCITQGKDAAVSKKASPEAASTPRDPIDVDLPEEAERVKAQVQALGLAEAQPMAVVQSVPGAHPVPVYAFSIKGPSYGEDVSNTTTAQKRKCSQTQCPRKVIKMESEEGKEARLARSSPEQPRPSTSKAVSPPHLDGPPSPRSPVIGSEVFLPNSNHVASGAGEAEERVVVISSSEDSDAENSSSRELDDSSSESSDLQLEGPSTLRVLDENLADPQAEDRPLVFFDLKIDNETQKISQLAAVNRESKFRVVIQPEAFFSIYSKAVSLEVGLQHFLSFLSSMRRPILACYKLWGPGLPNFFRALEDINRLWEFQEAISGFLAALPLIRERVPGASSFKLKNLAQTYLARNMSERSAMAAVLAMRDLCRLLEVSPGPQLAQHVYPFSSLQCFASLQPLVQAAVLPRAEARLLALHNVSFMELLSAHRRDRQGGLKKYSRYLSLQTTTLPPAQPAFNLQALGTYFEGLLEGPALARAEGVSTPLAGRGLAERASQQS
partner: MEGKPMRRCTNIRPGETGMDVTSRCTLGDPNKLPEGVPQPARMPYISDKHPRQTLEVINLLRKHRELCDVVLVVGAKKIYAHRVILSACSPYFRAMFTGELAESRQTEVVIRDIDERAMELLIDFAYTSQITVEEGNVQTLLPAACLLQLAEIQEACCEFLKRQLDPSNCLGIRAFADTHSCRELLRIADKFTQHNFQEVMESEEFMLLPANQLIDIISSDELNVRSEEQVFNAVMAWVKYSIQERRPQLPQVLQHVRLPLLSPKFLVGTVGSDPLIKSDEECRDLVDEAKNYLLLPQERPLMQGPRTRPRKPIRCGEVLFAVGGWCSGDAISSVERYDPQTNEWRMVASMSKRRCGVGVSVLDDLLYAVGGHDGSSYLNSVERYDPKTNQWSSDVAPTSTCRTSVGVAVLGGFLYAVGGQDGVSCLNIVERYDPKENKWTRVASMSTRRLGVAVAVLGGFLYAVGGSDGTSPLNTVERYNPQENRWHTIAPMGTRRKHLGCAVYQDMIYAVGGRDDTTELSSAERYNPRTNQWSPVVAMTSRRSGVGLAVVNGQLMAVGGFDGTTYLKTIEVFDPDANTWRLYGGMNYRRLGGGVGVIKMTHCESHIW

Variants of: B1
Settings: with klh20_human KLHL20, Q9Y2M5
In the case of S518A, the “effect of a mutation on the interaction” value is reported as “disrupting interaction”.

Variants of: B1
Settings: with klh20_human KLHL20, Q9Y2M5
Remark: another data set of the same source
In the case of S518A, the “effect of a mutation on the interaction” value is reported as “disrupting interaction”.
